{
  "source": "a protein production outcome set (Wang et al. 2014)",
  "data": [
    {"assay": "label from the status in PepcDB records", "values": [
      {"sequence": "KKPLSVFKGPLLHISPAEELYFGSIESGEKKTLIVLTNVTKNIVAFKVRTTAPEKYRVKPSNSSCDPGASIDIIVSPHGGLTVSAQDRFLIMAAEMEQSSGTGPAELSQFWKEVPRNKVMEHRLRCHTVESSKPNSLML", "protein production": "not failed"},
      {"sequence": "KNASVITVGNEILKGRTVNTNAAFIGNFLTYHGYQVRRGFVVMDDLDEIGWAFRVALEVSDLVVSSGGLGPTFDDMTVEGFAKCIGQDLRIDEDALAMIKKKYGQADLTPQRLKMAKIPPSCRPIENPVGTAPGLICAVGGKKVIILPGVPKEMEALLKAMEKDIIIPD", "protein production": "not failed"},
      {"sequence": "KNFNPPTRRNWESNYFGMPLQDLVTAEKPIPLFVEKCVEFIEDTGLCTEGLYRVSGNKTDQDNIQKQFDQDHNINLVSMEVTVNAVAGALKAFFADLPDPLIPYSLHPELLEAAKIPDKTERLHALKEIVKKFHPVNYDVFRYVITHLNRVSQQHKINLMTADNLSICFWPTLMRPDFENREFLSTTKIHQSVVETFIQQCQFFFYNGEIVE", "protein production": "not failed"},
      {"sequence": "KNIVVDFTEYNPLHNGHKYCMDFGKSEGLFISVIPGPLERSGRGIPYLVNRHIRAEMALLAGADLVVEGPPMGIMGSGQYMQCLIKIFSALNGDIIPRGYIEEETMERVINSINNGNHIKIKPYNISCIETREKLGEKLEIDNYVIASMSYTIYKLKENFPKWNPKFKFIERIEGISGTKIREGVFNNNFESIKHMLPITTIDVFKNFGDNLSEIILKRNEEMVLDTVNNFDLNKYLPENISEKLNEKEYYESIE", "protein production": "not failed"},
      {"sequence": "KNRIGTKALNFTYTLASGAQGSLYQLKAEYLLLFINNPGCQACTETIEGLKNAPIINQLLQEKKLVLLSIYPDEELDEWKKHLSEFPNEWINGYDKKFTIKEEQVYDLKAIPTLYLLDKDKTVLLKDATAPAIEAYLMQH", "protein production": "not failed"},
      {"sequence": "KPIPLAVIVVLGCFALGLGGIIGFVHKGEDYQAYQKLQWHTLAPEKIAPLVAQGYTVFVDITSDWCSICQTNKAEVTHREQVVNALMADDIILMQGNWSEADNTIAGYMQYEGIPGTPYNKIYGPRNPNGIVLPSKLTIEAVINGLAQAKAL", "protein production": "failed"},
      {"sequence": "KQAEMEVKRESYARERSTVARIQFRLPDGSSFTNQFPSDAPLEEARQFAAQTVGNTYGNFSLATMFPRREFTKEDYKKKLLDLELAPSASVVLLP", "protein production": "failed"},
      {"sequence": "KQLLTLKIKCSNQPERQILEKQLPDSMTVQKVKGLLSRLLKVPVSELLLSYESSKMPGREIELENDLQPLQFYSVENGDCLLVR", "protein production": "not failed"},
      {"sequence": "KREHAKQHGMIRTEITGAEIAEEMEKERRLFQLQMCEYLIKVNEIKTKKGVDLLQNLIKYYHAQCNFFQDGLKTADKLKQYIEKLAADLYNIKQTQDEEKKQLTALRDLIKSSLQLDQKESRRDSQSRQGGYSMHQLQGNKEYGSEKKGYLLKKSDGIRKVWQRRKCSVKNGILTISHATSNRQPAKLNLLTCQVKPNAEDKKSFDLISHNRTYHFQAEDEQDYVAWISVLTNSKEEALTMAFRGEQSAGENSLEDLTKAIIEDVQRLPGNDICCDCGSSEPTWLSTNLGILTCIECSGIHREMGVHISRIQSLELDKLGTSELLLAKNVGNNSFNDIMEANLPSPSPKPTPSSDMTVRKEYITAKYVDHRFSRKTCSTSSAKLNELLEAIKSRDLLALIQVYAEGVELMEPLLEPGQELGETALHLAVRTADQTSLHLVDFLVQNCGNLDKQTALGNTVLHYCSMYSKPECLKLLLRSKPTVDIVNQAGETALDIAKRLKATQCEDLLSQAKSGKFNPHVHVEYEWNLRQEEIDESDDDLDDKPSPIKKERSPRPQSFCHSSSISPQDKLALPGFSTPRDKQRLSYGAFTNQIFVSTSTDSPTSPTTEAPPLPPRNAGKGPTGPPSTLPLSTQTSSGSSTLSKKRPPPPPPGHKRTLSDPPSPLPHGPPNKGAVPWGNDGGPSSSSKTTNKFEGLSQQSSTSSAKTALGPRVLPKLPQKVALRKTDHLSLDKATIPPEIFQKSSQLAELPQKPPPGDLPPKPTELAPKPQIGDLPPKPGELPPKPQLGDLPPKPQLSDLPPKPQMKDLPPKPQLGDLLAKSQTGDVSPKAQQPSEVTLKSHPLDLSPNVQSRDAIQKQASEDSNDLTPTLPETPVPLPRKINTGKNKVRRVKTIYDCQADNDDELTFIEGEVIIVTGEEDQEWWIGHIEGQPERKGVFPVSFVHILSD", "protein production": "not failed"}
    ]}
  ]
}
